For one protein, Km results are on record in US6528275B1, “Substrates and inhibitors of proteolytic enzymes” (Peptide Therapeutics Limited, priority 1996, dated 2003).

Experiment in all cases: Der pI substrate assay with FRET peptides (fluorescence, Km, kcat/Km)
Assay type in all cases: biochemical, house dust mite
What all share (settings): other: purified Der pI; peptides SEQ ID Nos. 1-76; pH 8.25

Substrate in series [1]: CC(C)CC[C@H](NC(=O)[C@H](C)NC(=O)[C@H](CC[S+](C)[O-])NC(=O)c1ccccc1N)C(=O)N[C@@H](CO)C(=O)N[C@@H](Cc1ccc(O)c([N+](=O)[O-])c1)C(=O)N[C@@H](CC(=O)O)C(N)=O
The procedure: (§1) Using the general techniques described above, the following compounds were prepared and assayed as potential substrates against Der pI purified as described above.
(§2) Each mixture of 20 compounds in the libraries of the apparatus described herein was screened at a concentration of 1.0 μM per compound in an assay against the cysteinyl protease Der pI.
(§3) Plate assays were carried out in 96 well plate format, using 0.1 ug of Der pI per 100 μL assay volume in each well and using 20 μM of the substrate. All assays were performed in Assay Buffer (AB; 50 mM potassium phosphate, pH 8.25 containing 1 mM ethylenediaminetetraacetic acid (EDTA) and 1 mM dithiothreitol (DTT). The Der pI enzyme is pre-activated by addition of DTT and this in incubated at room temperature for 5 min. prior to initiation of the assay. As an example for the screening methodology, each well contains a 5 μL of a 20 μM solution of the test compound in DMSO, 10 μL of a 200 μM aqueous solution of the substrate, 2, and 85 μL of Der pI in AB is added to initiate the reaction. Enzyme activity is monitored by fluorescence using 320 nm for excitation and 420 nm for the emission wavelengths using a Labsystems Fluroskan Ascent machine. Kinetic measurements were carried out using a Hitachi F-4500 Fluorescence Spectrophotometer.

Substrate in series [2]: CC(C)CC[C@H](NC(=O)[C@H](C)NC(=O)[C@H](Cc1ccc(-c2ccccc2)cc1)NC(=O)c1ccccc1N)C(=O)N[C@@H](CCCCN)C(=O)N[C@@H](Cc1ccc(O)c([N+](=O)[O-])c1)C(=O)N[C@@H](CC(=O)O)C(N)=O
Here is the method: as §1, §2, §3

Substrate in series [3]: CC(C)CC[C@H](NC(=O)[C@H](C)NC(=O)[C@@H](NC(=O)c1ccccc1N)C(C)C)C(=O)N[C@@H](CO)C(=O)N[C@@H](Cc1ccc(O)c([N+](=O)[O-])c1)C(=O)N[C@@H](CC(=O)O)C(N)=O
Here is the method: as §1, §2, §3

Substrate in series [4]: CC(C)CC[C@H](NC(=O)[C@H](CC[S+](C)[O-])NC(=O)[C@@H](NC(=O)c1ccccc1N)C(C)C)C(=O)N[C@@H](CO)C(=O)N[C@@H](Cc1ccc(O)c([N+](=O)[O-])c1)C(=O)N[C@@H](CC(=O)O)C(N)=O
The procedure: as §1, §2, §3

Substrate in series [5]: CC(C)CC[C@H](NC(=O)[C@H](C)NC(=O)[C@H](Cc1ccc(-c2ccccc2)cc1)NC(=O)c1ccccc1N)C(=O)N[C@@H](CC(C)C)C(=O)N[C@@H](Cc1ccc(O)c([N+](=O)[O-])c1)C(=O)N[C@@H](CC(=O)O)C(N)=O
The procedure:
as §1, §2, §3

Substrate in series [6]: CC(C)CC[C@H](NC(=O)[C@H](C)NC(=O)[C@H](Cc1ccc(-c2ccccc2)cc1)NC(=O)c1ccccc1N)C(=O)N[C@@H](Cc1ccc(O)cc1)C(=O)N[C@@H](Cc1ccc(O)c([N+](=O)[O-])c1)C(=O)N[C@@H](CC(=O)O)C(N)=O
The procedure:
as §1, §2, §3

Substrate in series [7]: CCCC[C@H](NC(=O)[C@H](C)NC(=O)[C@@H](NC(=O)[C@H](Cc1cccc2ccccc12)NC(=O)c1ccccc1N)C(C)C)C(=O)N[C@@H](CO)C(=O)N[C@@H](Cc1ccc(O)c([N+](=O)[O-])c1)C(=O)N[C@@H](CC(=O)O)C(N)=O
The procedure:
as §1, §2, §3

Substrate in series [8]: CC(C)CC[C@H](NC(=O)[C@H](C)NC(=O)[C@H](Cc1ccc(-c2ccccc2)cc1)NC(=O)c1ccccc1N)C(=O)N[C@@H](CC1CCCCC1)C(=O)N[C@@H](Cc1ccc(O)c([N+](=O)[O-])c1)C(=O)N[C@@H](CC(=O)O)C(N)=O
Here is the method:
as §1, §2, §3

Substrate in series [9]: CC(C)[C@H](NC(=O)c1ccccc1N)C(=O)N[C@@H](C)C(=O)N[C@H](C(=O)N[C@@H](CO)C(=O)N[C@@H](Cc1ccc(O)c([N+](=O)[O-])c1)C(=O)N[C@@H](CC(=O)O)C(N)=O)[C@@H](C)O
The procedure:
as §1, §2, §3

Substrate in series [10]: CC(C)CC[C@H](NC(=O)[C@H](C)NC(=O)[C@H](CC(C)C)NC(=O)c1ccccc1N)C(=O)N[C@@H](CO)C(=O)N[C@@H](Cc1ccc(O)c([N+](=O)[O-])c1)C(=O)N[C@@H](CC(=O)O)C(N)=O
Here is the method:
as §1, §2, §3

Substrate in series [11]: CC(C)[C@H](NC(=O)c1ccccc1N)C(=O)N[C@@H](C)C(=O)N[C@@H](CCC(N)=O)C(=O)N[C@@H](CO)C(=O)N[C@@H](Cc1ccc(O)c([N+](=O)[O-])c1)C(=O)N[C@@H](CC(=O)O)C(N)=O
The procedure:
as §1, §2, §3

Substrate in series [12]: CC(C)[C@H](NC(=O)c1ccccc1N)C(=O)N[C@@H](C)C(=O)N[C@@H](CC1CCCCC1)C(=O)N[C@@H](CO)C(=O)N[C@@H](Cc1ccc(O)c([N+](=O)[O-])c1)C(=O)N[C@@H](CC(=O)O)C(N)=O
The procedure:
as §1, §2, §3

B1: Der pI (Dermatophagoides pteronyssinus) (protein)
chain: TNACSINGNAPAEIDLRQMRTVTPIRMQGGCGSCWAFSGVAATESAYLAYRNQSLDLAEQELVDCASQHGCHGDTIPRGIEYIQHNGVVQESYYRYVAREQSCRRPNAQRFGISNYCQIYPPNVNKIREALAQTHSAIAVIIGIKDLDAFRHYDGRTIIQRDNGYQPNYHAVNIVGYSNAQGVDYWIVRNSWDTNWGDNGYGYFAANIDLMMIEEYPYVVIL
notes: tissue SmithKline-Beecham, U.K (crude mite extract); host or cells: crude house dust mite extract
As for B1, the Km in series [1] amounted to 20 µM; in series [2], 2 µM; in series [3] it was 4 µM; in series [4] it was 35 µM; in [5], 3.7 µM; in series [6] it was 3 µM. Moreover, the Km in series [7] is 17 µM; in series [8], 2.5 µM; in series [9], 6 µM; in series [10], 18 µM; in series [11], 6 µM; in [12] it was 5 µM.
